Key:
[1] = CHX chase, western blot; details: control: untreated YTS-1 cells
[2] = western blot, YTS-1 cells; details: control: untreated YTS-1 cells
[3] = IP and anti-ubiquitin western blot; details: glycan lost; control: untreated YTS-1 cells

C1GalT1 (core1 β-1,3-galactosyltransferase, T-synthase): PugNAc
degradation_or_half_life ([1]; glycan gained): increases
expression_or_secretion ([2]; glycan gained): increases

C1GalT1 (core1 β-1,3-galactosyltransferase, T-synthase): OSMI-1
degradation_or_half_life ([1]; glycan lost): decreases
expression_or_secretion ([2]; glycan lost): decreases
other: ubiquitination [3]: increases

Source: PMC11399441
